Experimental data published in article doi:10.1101/633420.

Target: PRR (UniProt P10636)
Test: fluorescence correlation spectroscopy

Sequence of UniProt P10636 (P10636 466-561): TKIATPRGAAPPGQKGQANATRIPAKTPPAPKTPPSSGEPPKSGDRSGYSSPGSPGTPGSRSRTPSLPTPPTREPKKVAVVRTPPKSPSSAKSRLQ
Sequence of tubulin (Q6B856 whole entry, looked up): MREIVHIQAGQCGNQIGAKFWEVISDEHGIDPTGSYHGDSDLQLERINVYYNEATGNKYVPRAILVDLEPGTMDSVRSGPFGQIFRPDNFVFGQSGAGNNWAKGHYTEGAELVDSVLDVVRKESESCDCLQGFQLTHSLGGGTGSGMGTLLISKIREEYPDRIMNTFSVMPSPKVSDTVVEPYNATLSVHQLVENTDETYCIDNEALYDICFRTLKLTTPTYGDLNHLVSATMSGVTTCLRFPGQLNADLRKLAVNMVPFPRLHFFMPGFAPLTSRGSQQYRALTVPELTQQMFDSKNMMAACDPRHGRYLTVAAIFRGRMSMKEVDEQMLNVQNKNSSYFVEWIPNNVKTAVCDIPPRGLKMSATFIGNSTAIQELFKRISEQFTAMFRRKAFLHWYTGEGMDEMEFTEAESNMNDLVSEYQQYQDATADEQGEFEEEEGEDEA

Substance: tubulin (from UniProt Q6B856 1-445) (complex)
- Kd: 900 nM
- stoichiometry N (tubulin dimers per PRR): 2
